Measurements: the supplement of paper PMC9112550, “Optimization of the antimicrobial peptide Bac7 by deep mutational scanning” (BMC Biology, 2022)

Test system: Escherichia coli TOP10
Assay: shrunken log2 fold change of peptide-encoding DNA abundance (4.5 h post-induction vs induction); higher = less antimicrobial activity (less host growth inhibition)
Conditions: time post-induction: 4.5 h; library: site-saturation at positions 5, 18, 19, 20
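Further: peptides expressed intracellularly from a pBAD plasmid library in pooled LB shake-flask culture, induced with 0.3% L-arabinose, DNA abundance read by NGS, three biological replicates, DESeq2 with apeglm shrinkage.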

Sequence | shrunken log2 fold change
RRIRIRPPRLPRPRPRPVLYPRP | -0.598
RRIRARPPRLPRPRPRPYYDPRP | -0.215
RRIRSRPPRLPRPRPRPNSMPRP | -0.215
RRIRVRPPRLPRPRPRPWYRPRP | -0.39
RRIRGRPPRLPRPRPRPAEAPRP | 1.08
RRIRGRPPRLPRPRPRPLGNPRP | 0.17
RRIRIRPPRLPRPRPRPWHIPRP | 0.0542
RRIRSRPPRLPRPRPRPFSWPRP | -0.197
RRIRPRPPRLPRPRPRPIPGPRP | 0.0171
RRIRRRPPRLPRPRPRPVEYPRP | -0.00275
RRIRVRPPRLPRPRPRPQTIPRP | -0.127
RRIRMRPPRLPRPRPRPYKQPRP | -0.000436
RRIRFRPPRLPRPRPRPPVCPRP | -0.0141
RRIRQRPPRLPRPRPRPQQFPRP | 0.0507
RRIRCRPPRLPRPRPRPMWIPRP | 0.085
RRIRSRPPRLPRPRPRPTEAPRP | 0.0706
RRIRERPPRLPRPRPRPNIAPRP | 0.0918
RRIRIRPPRLPRPRPRPLLPPRP | -0.0454
RRIRNRPPRLPRPRPRPMQTPRP | -0.00987
RRIRSRPPRLPRPRPRPTLFPRP | 0.206
RRIRCRPPRLPRPRPRPTPVPRP | 0.714
RRIRTRPPRLPRPRPRPAKAPRP | -0.0213
RRIRTRPPRLPRPRPRPYNMPRP | -0.568
RRIRFRPPRLPRPRPRPYTSPRP | -0.256
RRIRDRPPRLPRPRPRPINQPRP | -0.389

Sequence | shrunken log2 fold change
RRIRIRPPRLPRPRPRPEKFPRP | -0.247
RRIRNRPPRLPRPRPRPDCSPRP | -0.224
RRIRMRPPRLPRPRPRPKDQPRP | 2.28
RRIRMRPPRLPRPRPRPHTSPRP | 0.242
RRIRFRPPRLPRPRPRPITWPRP | -0.972
RRIRCRPPRLPRPRPRPRWLPRP | 0.313
RRIRMRPPRLPRPRPRPPVMPRP | 0.616
RRIRCRPPRLPRPRPRPDDMPRP | -0.477
RRIRERPPRLPRPRPRPKAVPRP | 0.0311
RRIRFRPPRLPRPRPRPYYFPRP | -0.706
RRIRFRPPRLPRPRPRPKQNPRP | 0.249
RRIRMRPPRLPRPRPRPAYAPRP | 0.0769
RRIRQRPPRLPRPRPRPITQPRP | -0.132
RRIRFRPPRLPRPRPRPASFPRP | 0.279
RRIRLRPPRLPRPRPRPIVHPRP | 0.67
RRIRARPPRLPRPRPRPPIMPRP | 0.0549
RRIRYRPPRLPRPRPRPVHTPRP | -0.562
RRIRSRPPRLPRPRPRPTDLPRP | -0.464
RRIRRRPPRLPRPRPRPPFIPRP | 0.299
RRIRFRPPRLPRPRPRPDDCPRP | 0.014
RRIRVRPPRLPRPRPRPVIPPRP | -0.0964
RRIRPRPPRLPRPRPRPSNYPRP | -0.733
RRIRERPPRLPRPRPRPVECPRP | -0.152
RRIRWRPPRLPRPRPRPVLSPRP | 0.415
RRIRVRPPRLPRPRPRPGIPPRP | -0.103

Sequence | shrunken log2 fold change
RRIRKRPPRLPRPRPRPQTGPRP | 0.0141
RRIRIRPPRLPRPRPRPSYKPRP | -1.42
RRIRRRPPRLPRPRPRPHFYPRP | 0.0714
RRIRWRPPRLPRPRPRPCLKPRP | 0.0308
RRIRFRPPRLPRPRPRPKIAPRP | -0.0112
RRIRNRPPRLPRPRPRPIDPPRP | -0.127
RRIRDRPPRLPRPRPRPGANPRP | 0.19
RRIRHRPPRLPRPRPRPYCHPRP | -0.0851
RRIRERPPRLPRPRPRPQHCPRP | -0.23
RRIRCRPPRLPRPRPRPSTYPRP | -0.768
RRIRGRPPRLPRPRPRPGFFPRP | 0.542
RRIRVRPPRLPRPRPRPVKFPRP | -0.133
RRIRSRPPRLPRPRPRPLTIPRP | -0.201
RRIRKRPPRLPRPRPRPTCTPRP | 0.314
RRIRNRPPRLPRPRPRPTYFPRP | -0.147
RRIRERPPRLPRPRPRPEMVPRP | -0.0371
RRIRERPPRLPRPRPRPASEPRP | -0.123
RRIRSRPPRLPRPRPRPDWRPRP | 0.132
RRIRWRPPRLPRPRPRPEACPRP | 1.5
RRIRDRPPRLPRPRPRPSWGPRP | 0.0384
RRIRYRPPRLPRPRPRPNIKPRP | -1.13
RRIRCRPPRLPRPRPRPTKNPRP | 0.142
RRIRYRPPRLPRPRPRPQRQPRP | -0.00525
RRIRERPPRLPRPRPRPYEYPRP | -0.387
RRIRVRPPRLPRPRPRPMPQPRP | 0.311

Sequence | shrunken log2 fold change
RRIRDRPPRLPRPRPRPLARPRP | 0.479
RRIRWRPPRLPRPRPRPLMVPRP | -0.0319
RRIRARPPRLPRPRPRPQTTPRP | 0.768
RRIRWRPPRLPRPRPRPYGGPRP | -0.683
RRIRGRPPRLPRPRPRPQGTPRP | -0.0716
RRIRSRPPRLPRPRPRPAEQPRP | 0.0415
RRIRARPPRLPRPRPRPSYFPRP | -0.555
RRIRTRPPRLPRPRPRPNYNPRP | -0.831
RRIRVRPPRLPRPRPRPISLPRP | -0.0572
RRIRRRPPRLPRPRPRPDDPPRP | -0.0033
RRIRVRPPRLPRPRPRPRSEPRP | -0.14
RRIRHRPPRLPRPRPRPSAIPRP | -0.00669
RRIRPRPPRLPRPRPRPYCVPRP | -0.479
RRIRARPPRLPRPRPRPSMGPRP | -0.0314
RRIRFRPPRLPRPRPRPLKCPRP | -0.189
RRIRMRPPRLPRPRPRPRQIPRP | 1.19
RRIRARPPRLPRPRPRPYFTPRP | -0.71
RRIRLRPPRLPRPRPRPDAEPRP | 0.326
RRIRARPPRLPRPRPRPRAQPRP | 0.465
RRIRNRPPRLPRPRPRPPVTPRP | 0.228
RRIRTRPPRLPRPRPRPLIHPRP | -0.552
RRIRERPPRLPRPRPRPWTTPRP | -0.0139
RRIRHRPPRLPRPRPRPKYQPRP | -0.145
RRIRARPPRLPRPRPRPGFMPRP | 0.14
RRIRWRPPRLPRPRPRPTQRPRP | 0.133

Sequence | shrunken log2 fold change
RRIRFRPPRLPRPRPRPYMQPRP | -0.68
RRIRERPPRLPRPRPRPLKTPRP | -0.457
RRIRTRPPRLPRPRPRPYRPPRP | -0.2
RRIRLRPPRLPRPRPRPHKAPRP | -0.0451
RRIRKRPPRLPRPRPRPGMTPRP | 0.129
RRIRSRPPRLPRPRPRPMRDPRP | 0.0126
RRIRLRPPRLPRPRPRPEGYPRP | 0.104
RRIRWRPPRLPRPRPRPGYDPRP | -0.0098
RRIRRRPPRLPRPRPRPLCEPRP | 0.443
RRIRLRPPRLPRPRPRPHDAPRP | -0.0938
RRIRFRPPRLPRPRPRPWTGPRP | -0.00822
RRIRNRPPRLPRPRPRPFIRPRP | -0.111
RRIRNRPPRLPRPRPRPELIPRP | -0.0327
RRIRLRPPRLPRPRPRPNRGPRP | -0.00212
RRIRCRPPRLPRPRPRPKNYPRP | -0.676
RRIRHRPPRLPRPRPRPNRAPRP | -0.0865
RRIRPRPPRLPRPRPRPWLPPRP | -0.0294
RRIRTRPPRLPRPRPRPPWIPRP | 0.161
RRIRSRPPRLPRPRPRPVRCPRP | 0.221
RRIRQRPPRLPRPRPRPGYVPRP | -0.116
RRIRDRPPRLPRPRPRPQCSPRP | 0.0391
RRIRSRPPRLPRPRPRPFQTPRP | -0.266
RRIRQRPPRLPRPRPRPVNCPRP | -0.0672
RRIRYRPPRLPRPRPRPHNCPRP | -0.381
RRIRTRPPRLPRPRPRPFPQPRP | -0.042

Sequence | shrunken log2 fold change
RRIRDRPPRLPRPRPRPFVCPRP | -0.213
RRIRTRPPRLPRPRPRPSVWPRP | 0.172
RRIRIRPPRLPRPRPRPVNRPRP | -0.195
RRIRTRPPRLPRPRPRPKWYPRP | -0.468
RRIRHRPPRLPRPRPRPAHPPRP | 0.175
RRIRQRPPRLPRPRPRPDIGPRP | -0.0932
RRIRRRPPRLPRPRPRPCVRPRP | 0.11
RRIRCRPPRLPRPRPRPCRPPRP | -0.0339
RRIRWRPPRLPRPRPRPHHIPRP | -0.612
RRIRPRPPRLPRPRPRPLAEPRP | 0.322
RRIRQRPPRLPRPRPRPKEYPRP | 0.0124
RRIRSRPPRLPRPRPRPCHRPRP | -0.0558
RRIRVRPPRLPRPRPRPQFNPRP | -0.389
RRIRCRPPRLPRPRPRPLWQPRP | -0.147
RRIRTRPPRLPRPRPRPLSEPRP | -0.127
RRIRNRPPRLPRPRPRPIWQPRP | 0.0123
RRIRHRPPRLPRPRPRPKMWPRP | 0.451
RRIRQRPPRLPRPRPRPYYPPRP | 0.0338
RRIRFRPPRLPRPRPRPEACPRP | -0.0833
RRIRRRPPRLPRPRPRPTAEPRP | -0.0162
RRIRKRPPRLPRPRPRPMCTPRP | -0.0805
RRIRSRPPRLPRPRPRPADQPRP | 0.58
RRIRHRPPRLPRPRPRPESCPRP | 0.0512
RRIRGRPPRLPRPRPRPRSLPRP | 0.778
RRIRRRPPRLPRPRPRPENRPRP | 0.0232
